Results on four molecules are retold here after article PMC10723142, “Structures of the P. aeruginosa FleQ-FleN master regulators reveal large-scale conformational switching in motility and biofilm control” (Proceedings of the National Academy of Sciences of the …, 2023).

Sequences and labels used below:
B1: FleQ receiver and ATPase domain tandem (FleQ^REC-AAA+) (domain or fragment)
chain: not shown
notes: FleQ, P. aeruginosa PAO1, residues 1-394 (REC and AAA+ domains); untagged, from pRSFDuet1*; also called FleQ^1-394; HTH-truncated FleQ; source: E. coli BL21 Star (DE3), coexpressed with His6-FleN variants; in lysate (IMAC co-purification) and purified as complex (IMAC, SEC) for cryo-EM
B2: full-length FleN^D48A (His6 tag cleaved) (natural protein)
chain: MKQMGSMHPVQVIAVTGGKGGVGKTNVSVNLALALADLGRRVMLLDAALGLANVDVLLGLTPKRTLADVIEGRCELRDVLLLGPGGVRIVPAASGTQSMVHLSPMQHAGLIQAFSDISDNLDVLVVDTAAGIGDSVVSFVRAAQEVLLVVCDEPTSITDAYALIKLLNRDHGMTRFRVLANMAHSPQEGRNLFAKLTKVTDRFLDVALQYVGVIPYDESVRKAVQKQRAVYEAFPRSKASLAFKAVAQKVDSWPLPANPRGHLEFFVERLVQHPATGSAV
notes: FleN, P. aeruginosa PAO1, full-length with D48A; pProEx-Htb-cloned, tag cleaved by HRV3c protease; source: E. coli BL21 Star (DE3), coexpressed with FleQ^REC-AAA+, purified as complex (IMAC, HRV3c cleavage, SEC); not shown: His6, N-terminal, cleaved
B3: His6-tagged full-length FleN^D48A (tag not cleaved) (natural protein)
chain: MKQMGSMHPVQVIAVTGGKGGVGKTNVSVNLALALADLGRRVMLLDAALGLANVDVLLGLTPKRTLADVIEGRCELRDVLLLGPGGVRIVPAASGTQSMVHLSPMQHAGLIQAFSDISDNLDVLVVDTAAGIGDSVVSFVRAAQEVLLVVCDEPTSITDAYALIKLLNRDHGMTRFRVLANMAHSPQEGRNLFAKLTKVTDRFLDVALQYVGVIPYDESVRKAVQKQRAVYEAFPRSKASLAFKAVAQKVDSWPLPANPRGHLEFFVERLVQHPATGSAV
notes: pProEx-Htb-cloned; source: E. coli BL21 Star (DE3), coexpressed with FleQ^FL, purified as complex (IMAC, SEC), without tag cleavage; not shown: His6, N-terminal, kept
B4: full-length untagged FleQ (FleQ^FL) (natural protein)
chain: not shown
notes: FleQ, P. aeruginosa PAO1 (amplified from genomic DNA), residues 1-490 covering the full-length protein; untagged, from pRSFDuet1*; also called FleQ^1-490; wild-type FleQ; source: E. coli BL21 Star (DE3), coexpressed with His6-FleN variants; in lysate (IMAC co-purification) and purified as complex (IMAC, SEC) for cryo-EM

For data set [1], the target named is B2. Nature of the data set: cryo-EM structure; c-di-GMP-bound complex, coexpressed and co-purified (IMAC, tag cleavage, SEC with 2 uM c-di-GMP); 200 uM AppCp and 4 uM c-di-GMP before grid preparation. As to conditions: both partners purified.
Data set [2] concerns the molecule itself. Described as above.
Data set [3] has as its target B1. Described as above. As to conditions: both partners purified.
The target in data set [4] is B4. Briefly: cryo-EM structure; c-di-GMP-free complex, coexpressed and co-purified (IMAC, SEC), with AppCp (100 uM); 20 mM HEPES pH 8.0, 250 mM NaCl, 2 mM MgCl2, 2% glycerol; C2 symmetry. As to conditions: both partners purified.
Data set [5] deals with the molecule itself. The description is as above.
For data set [6], the target named is B3. The data set is described as above. As to conditions: both partners purified.

As to B1, the “stoichiometry N” value in data set [1] was 1.5 FleQ per FleN (3:2). Further, the binding result in data set [2] was “binds”.

As for B2, the binding result in data set [2] and in data set [3] was “binds” throughout.

For the molecule B3, the binding result in data set [4] and in data set [5] was “binds” throughout.

Take B4: the binding result in data set [5] is listed as “binds”. Further, in data set [6], the “stoichiometry N” value is 2 FleQ per FleN (4:2).

By stoichiometry N is commonly meant the number of molecules, sites or subunits per partner or assembly.
